Numbering of substitutions follows the chain as printed.
B1: BDG38.081 (antibody, V domains shown)
VH: QMQLVESGGGVVQPGRSLRLSCAASGFAFRTYGMHWVRQAPGKGLEWVAVIWDDGSNTHYADSVKGRFTITRDNSKNTLNLQMNSLRAEDTAVYYCVRAPQWYLTAEAFDLWGQGTMVTVSS
VL: SYVLTQPPSVSVAPGQTARITCGGNMIGAYLVHWYQQKPGQAPLLVIYDDVDRPDRIPERFSGSNSGNTATLTISRVEAGDEADYYCQVWDHNTQQMVFGGGTKLTVL
notes: IgG1
B2: BDG38.082 (antibody, V domains shown)
VH: B1 VH
VL: B1 VL with Q16E, R19T, A29G, L44V, N93D, Q95N, M97V
notes: IgG1
B3: BDG38.080 (antibody, V domains shown)
VH: B1 VH with D53Y, N57A, T105S
VL: B1 VL with Q16E, R19T, M26L, L44V, V51S, Q95N, Q96H
notes: IgG1
B4: BDG38.083 (antibody, V domains shown)
VH: B1 VH with R19T, A28E, A49G, V97A
VL: SYILTQPPSVSVAPGQTATITCGGNLIGAKLVHWYQQKPGQAPVLVIYDDSDRPSRIPERFSGSNIGNTATLTISDVEEGDEADYYCQVWDYSSDTMVFGGGTKLTVL
notes: IgG1
B5: BDG38.078 (antibody, V domains shown)
VH: B1 VH with A28E, V48L, A49G, D53Y, A88V
VL: B4 VL with Q16E, K30R, S75E, D76R, E79A, S93Y, T96H
notes: IgG1

Target: T1, cynomolgus monkey (cyno) TSLP (cynomolgus monkey, UniProt A0A7N9CAT7 29-159)
T1 construct: also called cTSLP; cynomolgus TSLP
Assay: SPR

T1 sequence (A0A7N9CAT7 entry or part of it): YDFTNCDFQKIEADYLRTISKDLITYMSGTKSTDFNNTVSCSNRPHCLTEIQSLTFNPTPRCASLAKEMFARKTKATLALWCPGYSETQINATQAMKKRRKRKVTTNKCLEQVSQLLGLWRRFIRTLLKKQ

| Kd | koff | kon | Binder |
| --- | --- | --- | --- |
| 0.00487 nM | 4.36e-05 s⁻¹ | 8.96e+06 M⁻¹ s⁻¹ | B1 |

Target: T2, hTSLP-His (human, UniProt Q969D9 29-159, limits assumed)
T2 construct: bought; also called hTSLP (ACROBiosystems TSP-H52Hb); not shown: His tag
Assay: competition ELISA, 7 nM TSLP-His pre-incubated with antibody; competitor Tezepelumab coated

| IC50 | Binder |
| --- | --- |
| 2.7 nM | B2 |
| 2.2 nM | B1 |
| 3.27 nM | B3 |
| 3.33 nM | B4 |
| 4.3 nM | B5 |

Target: T3, human TSLP (human, UniProt Q969D9 29-159)
Assay: cell-based or functional assay

| IC50 TARC | Binder |
| --- | --- |
| 1.58 nM | B2 |
| 5.93 nM | B1 |
| 0.79 nM | B3 |
| 11.4 nM | B4 |
| 6.52 nM | B5 |

Target: T4, recombinant human IL-13 (human, UniProt P35225 35-146)
Assay: cell-based or functional assay

T4 sequence (P35225 35-146 limits assumed): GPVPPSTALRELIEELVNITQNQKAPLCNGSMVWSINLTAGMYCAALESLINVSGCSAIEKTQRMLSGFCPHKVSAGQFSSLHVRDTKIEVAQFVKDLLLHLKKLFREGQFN

| IC50 CD23 | Binder |
| --- | --- |
| 0.0391 nM | B2 |
| 0.0339 nM | B1 |
| 0.201 nM | B3 |
| 0.0215 nM | B4 |
| 0.125 nM | B5 |

Target: T4, recombinant human IL-13
Assay: SPR

| Kd | koff | kon | Binder |
| --- | --- | --- | --- |
| 0.114 nM | 0.000956 s⁻¹ | 8.41e+06 M⁻¹ s⁻¹ | B2 |
| 0.0509 nM | 0.000872 s⁻¹ | 1.71e+07 M⁻¹ s⁻¹ | B1 |
| 0.0716 nM | 0.00114 s⁻¹ | 1.59e+07 M⁻¹ s⁻¹ | B3 |
| 0.0565 nM | 0.000401 s⁻¹ | 7.09e+06 M⁻¹ s⁻¹ | B4 |
| 0.0857 nM | 0.000203 s⁻¹ | 2.37e+06 M⁻¹ s⁻¹ | B5 |

Target: T2, hTSLP-His
Assay: competition ELISA: antibody titrated and pre-incubated with 7 nM TSLP-His, then on a plate coated with 33.001 (Tezepelumab), anti-His detection; row head on the sheet reads EC50, unit from the axis

| IC50 | Binder |
| --- | --- |
| 2.73 nM | B2 |
| 2.21 nM | B1 |
| 3.33 nM | B4 |

Target: T5, recombinant cynomolgus monkey IL-13 (cynomolgus monkey, UniProt Q0PW92 21-132)
T5 construct: bought; also called rc-IL-13; cIL-13
Assay: SPR

T5 sequence (Q0PW92 entry or part of it): as the sequence (P35225 35-146 limits assumed) above, with G1S, R10K, M42V, S67N, H83R, L100V counted along it

| Kd | koff | kon | Binder |
| --- | --- | --- | --- |
| 0.844 nM | 0.00675 s⁻¹ | 8e+06 M⁻¹ s⁻¹ | B1 |

Target: T2, hTSLP-His
Assay: competition ELISA: antibody titrated and pre-incubated with 7 nM TSLP-His, then on a plate coated with 33.001 (Tezepelumab), anti-His detection; row head on the sheet reads EC50, unit from the axis
Remark: another data set of the same source

| IC50 | Binder |
| --- | --- |
| 3.27 nM | B3 |
| 4.3 nM | B5 |

Target: T4, recombinant human IL-13
Assay: cell-based or functional assay
Remark: another data set of the same source

| HEK-IL-13 [nM] (IC50, STAT6 reporter) | Binder |
| --- | --- |
| 0.043 nM | B2 |
| 0.0483 nM | B1 |
| 0.0592 nM | B3 |
| 0.0419 nM | B4 |
| 0.0508 nM | B5 |

Target: T3, human TSLP
Assay: SPR

| Kd | koff | kon | Binder |
| --- | --- | --- | --- |
| 0.0616 nM | 0.000158 s⁻¹ | 2.56e+06 M⁻¹ s⁻¹ | B2 |
| 0.0692 nM | 0.000125 s⁻¹ | 1.81e+06 M⁻¹ s⁻¹ | B1 |
| 0.00722 nM | 1.81e-05 s⁻¹ | 2.5e+06 M⁻¹ s⁻¹ | B3 |
| 0.0983 nM | 0.000241 s⁻¹ | 2.45e+06 M⁻¹ s⁻¹ | B4 |
| 0.000231 nM | 2.95e-07 s⁻¹ | 1.28e+06 M⁻¹ s⁻¹ | B5 |

Target: T2, hTSLP-His
Assay: cell-based or functional assay

| IC50 [pM], STAT5 phosphorylation inhibition in MUTZ5 cells | Binder |
| --- | --- |
| 38.7 pM | B1 |
| 34.3 pM | B3 |
| 338 pM | B5 |

Reference: patent publication US20240059769A1 (BIOLOJIC DESIGN, published 2024)
